Data as given in patent US20250326842A1.
Where two headings read alike, the source gives them in different places.

Assays:
[1] = target: Cyno PVRIG recombinant protein (cynomolgus monkey); test: SPR, antibody captured via anti-human Fc, cyno PVRIG analyte
[2] = target: Cyno PVRIG recombinant protein (cynomolgus monkey); test: ELISA, chimeric antibody on recombinant cyno PVRIG
[3] = target: Cyno PVRIG recombinant protein (cynomolgus monkey); test: SPR, antibody captured via anti-human Fc, cyno PVRIG analyte; remark: listed apart in the source

Cyno PVRIG recombinant protein (cynomolgus monkey), sequence (Q6DKI7 other isoform, or with tags, fused parts or gaps limits assumed): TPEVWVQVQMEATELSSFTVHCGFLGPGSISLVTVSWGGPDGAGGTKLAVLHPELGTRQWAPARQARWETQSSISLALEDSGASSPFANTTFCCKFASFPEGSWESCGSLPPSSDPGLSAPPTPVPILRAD

| Binder | Kd [1] [pM] | koff [1] [s⁻¹] | kon [1] [M⁻¹ s⁻¹] | EC50 [2] [pM] | Kd [3] [pM] | koff [3] [s⁻¹] | kon [3] [M⁻¹ s⁻¹] |
| --- | --- | --- | --- | --- | --- | --- | --- |
| BGA86 (antibody, human IgG1, V domains shown) VH: EVQLQESGGGSVKPGGSLQLSCAASGFTFSSYGMSWIRQSPEKKLEWVAEISSGGTYTYYPDTVTGRFTISRDNAKNTLYLEMSSLRSEDTAMYYCARGDPFGYWGQGTLVTVSA VL: DVVMTQSHKFVSTSVGGRVSITCKASQDVMTAVAWYQQKPGQSPKLLIYSTSYRFTGVPDRFTGSGSGTDFTLTINGVQAEDLAVYSCQQHYSTPRTFGGGTKLEIK | 552 | 0.0017 | 3.08e+06 | 44.9 | 674 | 0.00133 | 1.97e+06 |
| BGA501 (antibody, V domains shown) VH: QVQLVQSGAEVKKPGASVKVSCKASGYSFTGYFLNWVRQAPGQGLEWIGRISPYQGDTFYNQKFKGRVTMTTDKSTSTAYMELRSLRSDDTAVYYCGRSGSFTLFYAIDYWGQGTLVTVSS VL: DIVMTQSPSSLAVSLGERATINCKSSQSLFHSGNQKNYLAWYQQKPGQSPKLLIYWASTRESGVPDRFSGSGSGTDFTLTISSLQAEDVAVYYCQQYYSYPITFGQGTKLEIK | 426 | 0.00267 | 6.27e+06 | – | – | – | – |
| BGA502 (antibody, V domains shown) VH: QVQLVQSGAEVKKPGASVKVSCKASGYSFTGYFLNWVRQAPGQGLEWIGRISPYQGDTFYNQKFKGRVTMTTDKSTSTAYMELRSLRSDDTAVYYCGRSGSFTLFYALDYWGQGTLVTVSS VL: DIVMTQSPSSLAVSLGERATINCKSSQSLFHSGNQKNYLAWYQQKPGQSPKLLIYWASTRESGVPDRFSGSGSGTDFTLTISSLQAEDVAVYYCQQYYSYPITFGQGTKLEIK | 433 | 0.00266 | 6.16e+06 | – | – | – | – |
| BGA861 (antibody, V domains shown) VH: EVQLVESGGGLVKPGGSLRLSCAASGFTFSSYGISWVRQAPGKGLEWVSEISSGGTYTYYPDTVTGRFTISRDNAKNTLYLQMSSLRAEDTAVYYCARGDPFGYWGQGTLVTVSS VL: DIQMTQSPSSLSASVGDRVTITCKASQDVMTAVAWYQQKPGKAPKLLIYSTSYRFTGVPSRFSGSGSGTDFTLTISSLQPEDFATYYCQQHYSTPRTFGGGTKVEIK | 1010 | 0.00221 | 2.18e+06 | – | – | – | – |
| BGA862 (antibody, V domains shown) VH: EVQLVESGGGLVKPGGSLRLSCAASGFTFSSYGLSWVRQAPGKGLEWVSEISSGGTYTYYPDTVTGRFTISRDNAKNTLYLQMSSLRAEDTAVYYCARGDPFGYWGQGTLVTVSS VL: DIQMTQSPSSLSASVGDRVTITCKASQDVMTAVAWYQQKPGKAPKLLIYSTSYRFTGVPSRFSGSGSGTDFTLTISSLQPEDFATYYCQQHYSTPRTFGGGTKVEIK | 2160 | 0.00483 | 2.23e+06 | – | – | – | – |
| BGA12 (antibody, V domains shown) VH: QVQLQQSGPEVVRPGVSVKISCKGSGYTFTDYAMHWVKQSHGKSLEWIGVVLTHNDNTNYNQKFKAKATMTVDRSSSTAYMELARLTSEDSAIYYCAREVYYDFDDGNYFPMDYWGQGTSVTVSS VL: DIVMSQSPSSLAVSVGEKVTMSCKSSQSLLYSDNQKNYLAWYQQKPGQSPKLLIYWASTRESGVPVRFTGSGSGTDFTLTISSVKAEDLAVYYCQQYYSYHTFGGGTKLEIK | – | – | – | 39 | 6310 | 0.000354 | 56100 |

More lines, in order of falling Kd [1], values ahead:

| Kd [1] [pM] | koff [1] [s⁻¹] | kon [1] [M⁻¹ s⁻¹] | EC50 [2] [pM] | Kd [3] [pM] | koff [3] [s⁻¹] | kon [3] [M⁻¹ s⁻¹] | Binder |
| --- | --- | --- | --- | --- | --- | --- | --- |
| 396 | 0.00294 | 7.44e+06 | – | – | – | – | BGA503 (antibody, V domains shown) VH: QVQLVQSGAEVKKPGASVKVSCKASGYSFTGYFLNWVRQAPGQGLEWIGRISPYQGDTFYNQKFKGRVTMTVDKSTSTAYMELRSLRSDDTAVYYCGRSGSFTLFYALDYWGQGTLVTVSS VL: DIVMTQSPSSLAVSLGERATINCKSSQSLFHSGNQKNYLAWYQQKPGQSPKLLIYWASTRESGVPDRFSGSGSGTDFTLTISSLQAEDVAVYYCQQYYSYPITFGQGTKLEIK |
| 347 | 0.0032 | 9.21e+06 | 27.3 | 730 | 0.00588 | 8.05e+06 | BGA50 (antibody, V domains shown) VH: EVQLQQSGPEPVKPGASVKISCKASGYSFTGYFLNWVKQSHGKSLEWIGRISPYNGDTFYNQKFKGKATLTVDKSSSTAHMELLSLTSEDSAVYYCGRSGSFTLFYAMDYWGQGTSVTVSS VL: DIVMSQSPSSLAVSVGENITMTCKSSQSLFHSGNQKNYLAWYQQKPGQSPKLLIYWASTRESGVPDRFTGSGSETDFTLTISSVKAEDLAVYFCQQYYSYPITFGAGTKLELK |
| 73.8 | 0.000367 | 4.98e+06 | – | – | – | – | BGA381 (antibody, V domains shown) VH: EVQLVQSGAEVKKPGASVKVSCKASGYTFTDYWIYWVRQAPGQGLEWMGTIDTSDHKTSYNQKFRGRVTMTRDTSTSTVYMELSSLRSEDTAVYYCARDFIITVNYPVVDYWGQGTLVTVSS VL: QIVLTQSPATLSLSPGERATLSCSAGSSVNYMHWFQQKPGQAPRLLIYSTSNLASGVPARFSGSGSGTDYTLTISSLEPEDFAVYYCQQRSSLPFTFGQGTKLEIK |
| 65.8 | 0.000345 | 5.25e+06 | – | – | – | – | BGA383 (antibody, V domains shown) VH: EVQLVQSGAEVKKPGASVKVSCKASGYTFTDYWIYWVRQAPGQGLEWMGTIDTSDAKTSYNQKFRGRVTMTRDTSTSTVYMELSSLRSEDTAVYYCARDFIITVNYPVVDYWGQGTLVTVSS VL: QIVLTQSPATLSLSPGERATLSCSAGSSVNYMHWFQQKPGQAPRLLIYSTSNLASGVPARFSGSGSGTDYTLTISSLEPEDFAVYYCQQRSSLPFTFGQGTKLEIK |
| 51.8 | 0.000243 | 4.7e+06 | – | – | – | – | BGA382 (antibody, V domains shown) VH: EVQLVQSGAEVKKPGASVKVSCKASGYTFTDYWIYWVRQAPGQGLEWMGTIDTSDHKTSYNQKFRGRVTMTRDTSTSTVYMELSSLRSEDTAVYYCARDFIITVNYPVVDYWGQGTLVTVSS VL: QNVLTQSPATLSLSPGERATLSCSAGSSVNYLHWFQQKPGQAPRLLIYSTSNLASGVPARFSGSGSGTDYTLTISSLEPEDFAVYYCQQRSSLPFTFGQGTKLEIK |
| 50.7 | 0.00021 | 4.15e+06 | 222 | 109 | 0.000157 | 1.44e+06 | BGA38 (antibody, V domains shown) VH: EVQLQESGAEHVMPGASVKMSCKAAGYTFTDYWMYWVKQRPGQGLEWIGTIDTSDHKTSYNQKFRGKATLTVDESSSTAYMQLSSLTSEDSAVYYCARDFIITVNYPVVDYWGQGTSVTVSS VL: QNVLTQSPAIMSASPGEKVTITCSAGSSVNYMHWFQQKPGTSPKLWIYSTSNLASGVPARFSGSGSGTSYSLTISRMEAEDAATYYCQQRSSLPFTFGSGTKLEIK |
